Series [1] in a line: Control incubation of conjugate in enzyme-free buffer pH 6.0. In kind it is in vitro ADME. The settings on record: pH 6.0, no cathepsin B, RP-HPLC, over 24 h. On the procedure: The cleavage profile of T7-SN-38-rucaparib was evaluated by following a published method. […] This mixture was added to 4.9 mL of reaction buffer (150 mM sodium acetate buffer, 12 mM EDTA, 24 mM DTT in H2O, pH 6.0). […] The reaction was allowed to proceed at 37 °C, and samples were taken and analyzed by RP-HPLC at predetermined intervals (0–24 h). Changes in peak areas of the pure drugs and conjugate at their characteristic retention times to observe the disappearance of T7-SN-38-rucaparib and the appearance of free SN-38 and rucaparib over a 24 h period were monitored.

Series [2] has as its system U87MG cells with blocked transferrin receptors. The series is described as follows: T7 competition assay with or without exogenous cathepsin B on TfR-blocked U87MG cells. The note with it: 20 nM drug equivalents, exogenous cathepsin B added, 72 h, XTT, n = 4. As to the method:
In these studies, blocking was done as reported for the transferrin receptor blocking studies above. […] In an additional step, exogenous cathepsin B was added to the treated wells. In a parallel experiment, cells were treated with the same test agents at the same concentrations but without exogenous cathepsin B. XTT assays were conducted at 72 h following the manufacturer’s protocol for cytotoxicity. Percent cell viability was calculated, and the data were plotted using GraphPad Prism 10.
(In general: Tetrazolium dyes change colour on reduction, which living cells bring about.)

Another series addresses T1, human liver cathepsin B (Homo sapiens, UniProt P07858).
T1 construct: human liver cathepsin B stock (0.47 mg/mL, 324 U/mg, Merck Millipore); purchased Merck Millipore; host or cells: human liver (tissue-derived, as the product name says)
In words: In vitro cleavage of T7-SN-38-rucaparib by exogenous cathepsin B (RP-HPLC). It is filed as in vitro ADME. The settings on record: sodium acetate buffer with EDTA and DTT, pH 6.0, 37 °C, conjugate 210 µM, n = 3. As to the method: The cleavage profile of T7-SN-38-rucaparib was evaluated by following a published method. Using this method, 11 μL of human liver cathepsin B stock (0.47 mg/mL, 324 U/mg, Merck Millipore) was activated in 27.2 μL of activation buffer (30 mM DTT, 15 mM EDTA in H2O) for 15 min. This mixture was added to 4.9 mL of reaction buffer (150 mM sodium acetate buffer, 12 mM EDTA, 24 mM DTT in H2O, pH 6.0). Cleavage was initiated by adding the cathepsin B solution to the T7-SN-38-rucaparib stock solution (8) in DMSO (final concentration 210 µM). The reaction was allowed to proceed at 37 °C, and samples were taken and analyzed by RP-HPLC at predetermined intervals (0–24 h). Changes in peak areas of the pure drugs and conjugate at their characteristic retention times to observe the disappearance of T7-SN-38-rucaparib and the appearance of free SN-38 and rucaparib over a 24 h period were monitored.

Series [3] in a line: XTT cytotoxicity on U87MG cells. As to the method: U87MG cells (10,000 cells per well) were seeded in 96-well plates and allowed to attach for 24 h. […] To evaluate cytotoxicity, XTT solution was added to each well per manufacturer protocols at 24 and 72 h after treatment. Following a 3-h incubation period, the absorbance of each well was measured at 450 nm using a Biotek ELx808 microplate reader (Lonza, Basel, Switzerland). Average absorbance values of the cells treated with different concentrations of test agents were normalized to those of the untreated cell controls. GraphPad Prism 10 was used to plot percent cell viability.
U87MG cells (10,000/well), seeded in 96-well plates, were allowed to attach for 24 h. The cells, incubated at 37 °C, were then treated with rucaparib solution at concentrations ranging from 5 nM to 160 nM. To evaluate cytotoxicity, XTT solution was added to each well at 24 and 72 h after treatment per manufacturer protocol. Following a 3-h incubation period, the absorbance of each well was measured at 450 nm using a Biotek ELx808 microplate reader (Lonza). The average absorbance of the cells treated with different concentrations of rucaparib were normalized to those of untreated cell controls. […]
IC50 values were calculated by concentration-response curve fitting using Microsoft Excel 16.77 (Microsoft Corp). […] Differences between groups were determined by ANOVA, with a p-value < 0.05 deemed statistically significant.

The nature of series [4]: XTT cytotoxicity on HEK-293 cells. On the procedure:
(§1) HEK-293 cells (15,000/well), seeded in 96-well plates, were allowed to attach for 24 h. […] To evaluate cytotoxicity, XTT solution was added to each well at 24 and 72 h after treatment per manufacturer protocol. Following a 3-h incubation period, the absorbance of each well was measured at 450 nm using a Biotek ELx808 microplate reader (Lonza). Average absorbance values of the cells treated with different concentrations of test agents were normalized to those of untreated cell controls, and percent cell viability was plotted using GraphPad Prism 10.
(§2) IC50 values were calculated by concentration-response curve fitting using Microsoft Excel 16.77 (Microsoft Corp). Data represent mean ± standard deviation (SD) unless otherwise indicated. Differences between groups were determined by ANOVA, with a p-value < 0.05 deemed statistically significant.

In a further series the test system is HEK-293 cells. The series is described as follows: XTT cytotoxicity on HEK-293 cells. The settings on record: HEK-293 cells, 24 h, p < 0.05, n = 4. As to the method:
as §1, §2

The structures appear in SMILES notation.

For `CCc1c2c(nc3ccc(OCc4ccc(NC(=O)[C@H](C)NC(=O)[C@@H](NC(=O)CCCCCNC(=O)COCCOCCOCCNC(=O)CCCCC(=O)N5Cc6ccccc6-c6c(nnn6CCOCCOCCOCCOCCC(=O)N[C@@H](CSC6CC(=O)N(CCC(=O)NCCOCCOCCOCCOCCC(=O)NCCCCCC(=O)N[C@H](C(=O)N[C@@H](C)C(=O)Nc7ccc(COC(=O)N(C)Cc8ccc(-c9[nH]c%10cc(F)cc%11c%10c9CCNC%11=O)cc8)cc7)C(C)C)C6=O)C(=O)NCCOCCOCCOCC(=O)N[C@@H](Cc6c[nH]cn6)C(=O)N[C@@H](C)C(=O)N[C@H](C(=O)N[C@@H](Cc6ccc(O)cc6)C(=O)N6CCC[C@H]6C(=O)N[C@@H](CCCNC(=N)N)C(=O)N[C@@H](Cc6c[nH]cn6)C(=O)O)[C@@H](C)CC)-c6ccccc65)C(C)C)cc4)cc13)-c1cc3c(c(=O)n1C2)COC(=O)[C@]3(O)CC` (stereo partly drawn) [T7-SN-38-rucaparib], the “release of free drugs in enzyme-free buffer” value in series [1] is reported as under 10%. Moreover, the “cytotoxicity with exogenous cathepsin B” value in series [2] is recorded as “comparable cytotoxicity to the cells treated with free drugs”. In addition, the “Percent Cleaved” value came to 17.8% with human liver cathepsin B (time 1 h), 43.8% with human liver cathepsin B (time 4 h), 61.6% in the series with human liver cathepsin B (time 8 h) and 87.3% in the series with human liver cathepsin B (time 24 h). Moreover, the figures for the IC50 in series [3] and in series [4] were 22.3 nM and 116 nM, respectively. Moreover, the “cytotoxicity, conjugate versus free drugs” value with HEK-293 cells is “significantly lower cytotoxicity compared to free SN-38-rucaparib”.
